B1: Exomyc polyprotein 2, Rrp41-P46-P97R1R2 (other)
chain: MAEKPEGLKLIDENGRRIDGRKKYELRPIKMEVGVLKNANGSAYIEWGKNKIIAAVYGPRELHPKHLQRPDRAILRVRYNMAPFSVEETKSPGPDRRSIEISKVIKGALEPALILEMFPRTAIDVFIEVLQADAGTRVAGITAASLALADAGIPMRDLVAACAAGKIEGEIVLDLNKEEDNYGEADVPVAIMPLKNDITLLQMDGYLTKDEFIEAVKLAIKGAKAVYQKQREALKEKYLKIAQEVEGSPKHKVSNDSIRIALTDPDNPRWISAQKDIISYVDETEAATSTITKNQDAQNNWLTQQANLSPAPKGFIIAPENGSGVGTAVNTIADKGIPIVAYDRLITGSDKYDWYVSFDNEKVGELQGLSLAAGLLGKEDGAFDSIDQMNEYLKSHMPQETISFYTIAGSQDDNNSQYFYNGAMKVLKELMKNSQNKIIDLSPEGENAVYVPGWNYGTAGQRIQSFLTINKDPAGGNKIKAVGSKPASIFKGFLAPNDGMAEQAITKLKLEGFDTQKIFVTGQDYNDKAKTFIKDGDQNMTIYKPDKVLGKVAVEVLRVLIAKKNKASRSEVENELKAKLPNISFKYDNQTYKVQGKNINTILVSPVIVTKANVDNPGAAKPEAAKPVAAKPETTKPVAAKPEAAKPEAAKPVAAKPEAAKPVAAKPEAAKPVAAKPEAAKPVAAKPEAAKPVATNTGFSLTNKPKEDYFPMTEGSSNQGKKSEGTPNQGKKAEGAPNQGKKAEGTPNQGKKAEGAPSQQSPTTE
notes: also called Rrp41-P46-97R1R2
B2: Exomyc polyprotein 3, Rrp42-P216A-HSP-NrdF (other)
chain: MGSDNEIVAGIMRDHIINLLKEGKRIDDRGFEDYRPIEIEVGVIEKAEGSALVKLGSTQVLVGIKTSLGEPFPDTPNMGVMTTNVELVPLASPTFEPGPPDERAIELARVIDRGIRESKALNLEKMVIVPGKIVRVVFIDVHVLDHDGNLMDAIGIAAIAALLNARVPKVRYNEETGEVETLDETEPLPVEKIPVPVTFAKIGNILVVDPSLDEELVMDGKITITTDETGHISAVQKSEGGAFKLEEVMYAVETAFKKAEEIRKLILEAVEKAKQLEGQKKAVRKEEELETYNPKDEFNILNPGEISDVLLLDVTPLTLGIETLGGIATPLIPRNTTIPVTKSQIFSTAEDNQTEVTISVVQGERQLAADNKMLGRFNLSGIEAAPRGLPQIEVSFSIDVNGITTVSAKDKKTGKEQTITIKNTSTLSEEEINKMIQEAEENREADALKKDKIETTVRAEGLINQLEKSITDQGEKIDPKQKELLEKQIQELKDLLKEDKTDELKLKLDQIEAAAQSFAQATAQQANTSESDPKADDSNTIDAEIKQDGSGKQDEIKKFTFDLLYKLIELEKDYLYDLYSEVGLAESAIKFSIYNAGKFLQNLGYDSPFSKEETEIEPEIFSQLSARADENHDFFSGNGSSYVMALAEETEDEDWEF
notes: also called Rrp42-HSP-NrdF

Assay [1] addresses T1, Exomyc polyprotein 1, Rrp4-P216B-P36-MHP271.
T1 construct: Expressed in E. coli BL21 (DE3) from pMRK-EXOMYC; also called Rrp4-P36-MHP271
The assay is described as follows: co-expression in E. coli, co-retention on 500 kDa MWCO tangential filtration, SDS-PAGE.

The target in assay [2] is B2. The assay is described as above.

For B1, the binding result in assay [1] and in assay [2] was “binds” in each case.

Consider B2, for which the binding result in assay [1] is listed as “binds”.

For the origin of these results see patent publication US20170274062A1 (OURO FINO SAUDE ANIMAL LTDA, published 2017).
